Test results published in publication PMC8428573.

Biological target: SARS-CoV-2 spike protein extracellular domain (residues 14 to 1209, S1 and S2 without the transmembrane domain) (SARS-CoV-2) (UniProt P0DTC2)
Test: SEC

SARS-CoV-2 spike protein extracellular domain (residues 14 to 1209, S1 and S2 without the transmembrane domain) (from UniProt P0DTC2 14-1209) (domain or fragment)
stoichiometry N: 3
